Where a SMILES comes first, the peptide text is derived from it. The star is where a group is joined. FITC = O=C1OC2(c3ccc(O)cc3Oc3cc(O)ccc32)c2ccc(NC(=S)*)cc21; Oxazole(5-CO) = O=C(c1cnco1)*; Ahx = NCCCCCC(=O)O
Experiments:
MV4-11 cells = type: cell-based
Text: (§1) For peptides developed for intracellular targets, a common concern is their cellular permeability to engage the targets. For the ENL YEATS domain that is a nuclear protein, its inhibitors will also need to translocate to the nucleus to exert their inhibition activities. […] We attached FITC to tENL-S1o to afford FITC-tENL-S1o that could be fluorescently imaged. […] Although results from this pilot study were very encouraging, the conjugated FITC could have assisted the cellular penetration process. A more accurate assay was needed for the use of unmodified peptides. […] There are three components required to gauge the peptide inhibitory potency for ENL expressed in cells through NanoBRET assays: (1) an ENL YEATS-NanoLuc luciferase fusion protein, (2) a NanoLuc luciferase substrate, and (3) a fluorescent tracer that binds specifically and reversibly to the reader channel of ENL YEATS. […] The cellular potency of peptides can be determined through the decrease in BRET as test peptides engage the ENL YEATS domain and displace the tracer. […]
(§2) Fluorescence microscopy study with FITC-6AHX-tENL-S1o: […]
(§3) Cell proliferation assays were performed in 96-well tissue culture plates (Corning). […] Cell numbers were determined every 3–4 days using the Countess automated cell counter (Invitrogen). […]

MOLM-13 cells = type: cell-based
Text: as §1, §2, §3

ENL YEATS (His-ENL) = target: T1, ENL YEATS (His-ENL) (Homo sapiens, UniProt Q03111); test: Fluorescence polarization binding of tracer to ENL YEATS
T1 construct: (aa 1−148) was cloned in pET19b; made in house; host or cells: E. coli BL21(DE3pLysS)
T1 sequence (Q03111 1-148): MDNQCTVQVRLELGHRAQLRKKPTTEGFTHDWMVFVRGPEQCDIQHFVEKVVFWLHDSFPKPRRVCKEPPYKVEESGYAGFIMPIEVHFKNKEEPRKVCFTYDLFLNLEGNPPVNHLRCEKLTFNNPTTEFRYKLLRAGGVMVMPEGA
Experimental: Meanwhile, we established a stable cell line for NanoLuc-ENL YEATS expression. The binding of SR-0813T to […] was also validated using a fluorescence polarization assay (Figure S16).
Fluorescence Polarization:
Tracer 1 (10 nM) and varying concentrations of His-ENL (14 nM to 7.2 µM) were mixed in a 200 µL of assay buffer (50 mM HEPES, 100 mM NaCl, 0.01% Tween20, pH: 7.4). The solutions were incubated in black 96-well plates and then measured fluorescence polarization in a microplate reader at Ex/Em = 530 nm/590 nm.
NanoBRET Assay to Validate ENL Inhibitors:
HEK293T/17 cells harboring pCDH-EF1-Nluc-ENL were cultivated in growth medium overnight at 37 °C and 5% CO2. […] Following a quick spin (100 rcf, 1 min), a plate reader equipped with the LUM 610 LP 450 module was used to measure the emissions at 450 nm (donor) […]
The final BRET ratio was calculated by dividing the acceptor emission (610 nm) by the donor emission (450 nm). The BRET ratio was calculated using the following equation: […]
MOLM-13 cells were incubated with test compound (tENL-S1f at a final concentration of 10 and 50 μM) and control (DMSO at a final concentration of 0.1%) for 24 hours. […] Quantitative real-time PCR (qRT-PCR) analyses were performed in triplicate using SYBR Select Master Mix (Applied Biosystems) […]
Gene expressions were calculated following normalization to B2M levels using the comparative C t (cycle threshold) method. […]

Compound	cellular fluorescence (cell penetration) (MV4-11 cells)	cellular fluorescence (cell penetration) (MOLM-13 cells)	Kd (ENL YEATS (His-ENL)) [nM]
CC(C)[C@H](NC(=O)CCCCCNC(=S)Nc1ccc2c(c1)C(=O)OC21c2ccc(O)cc2Oc2cc(O)ccc21)C(=O)N[C@@H](Cc1ccc(O)cc1)C(=O)N[C@@H](CS)C(=O)N[C@@H](Cc1ccc(O)cc1)C(=O)N[C@@H](CCCCNC(=O)c1cnco1)C(N)=O [FITC-tENL-S1o] ({FITC-Ahx}-VYCYK(Oxazole(5-CO))-NH2)	strong fluorescence within the cells	strong fluorescence within the cells	
O=C(CCC1=[N+]2C(=Cc3ccc(-c4ccc[nH]4)n3[B-]2(F)F)C=C1)NCCCC(=O)Nc1cccc(-c2cn3cc(C(=O)NC4CCC4)ccc3n2)c1 [SR-0813T]			1100

Source: article PMC11046469, “Leveraging a Phage-Encoded Noncanonical Amino Acid: A Novel Pathway to Potent and Selective Epigenetic Reader Protein Inhibitors” (ACS Central Science, 2024)
